{
  "source": "patent US20250340637A1",
  "about": "(ABPRO, published 2025)",
  "binders": {"B1": {"name": "ABP100s.1 (antibody, V domains shown)", "VH": "EVQLVESGGGLVQPGGSLRLSCAASGFTFNTYAMNWVRQAPGKGLEWVARIRSKYNNYATYYADSVKGRFTISRDDSQSSLYLQMNSLKTEDTAVYYCVRHGNFGNSYVSWFAYWGQGTLVTVSS", "VL": "QAVVTQEPSFSVSPGGTVTLTCGSSTGAVTTSNYANWVQQTPGQAFRGLIGGTNKRAPGVPDRFSGSLIGDKAALTITGAQADDESDYFCALWYSNLWVFGGGTKLTVL"}, "B2": {"name": "ABP100s.5.4 (antibody, V domains shown)", "VH": "B1 VH with R19K, G68D, Q78K, S79N, S80T, L81A", "VL": "QTVVTQEPSLTVSPGGTVTLTCRSSTGAVTTSNYANWVQQKPGQAFRGLIGGTNKRAPGVPARFSGSLLGGKAALTLSGVQPEDEAIYFCALWYSNLWVFGGGTKLTVL"}, "B3": {"name": "anti-HER2×CD3 BsAb comprising the anti-CD3 VH and VL sequences of ABP100s.10.0 (bispecific antibody, V domains shown)", "VH 1": "not shown", "VL 1": "not shown", "VH 2": "B1 VH with R19K, G44C, G68D, Q78K, S79N, S80T, L81A", "VL 2": "B2 VL with G102C", "notes": "Only the four variable domains are tied to the tested molecule; also called 10.0 clone; parental construct"}, "B4": {"name": "ABP100s.5.2 (antibody, V domains shown)", "VH": "B1 VH with R19K, G68D, Q78K, S79N, S80T, L81A, Q117C", "VL": "B2 VL with A45C, T107E, V108I, L109K"}, "B5": {"name": "ABP100s.10.2 (antibody, V domains shown)", "VH": "B1 VH with R19K, G44C, G68D, Q78K, S79N, S80T, L81A", "VL": "B2 VL with G102C"}, "B6": {"name": "ABP100s.5 (antibody, V domains shown)", "VH": "B1 VH with R19K, G68D, Q78K, S79N, S80T, L81A", "VL": "B2 VL with T107E, V108I, L109K"}, "B7": {"name": "ABP100s.7 (antibody, V domains shown)", "VH": "B1 VH with R19K, P41S, G68D, Q78K, S79N, S80T, L81A", "VL": "B2 VL with T107E, V108I, L109K"}, "B8": {"name": "ABP100s.5.1 (antibody, V domains shown)", "VH": "B1 VH with R19K, G44C, G68D, Q78K, S79N, S80T, L81A", "VL": "B2 VL with G102C, T107E, V108I, L109K"}, "B9": {"name": "ABP100s.10.1 (antibody, V domains shown)", "VH": "B1 VH with R19K, G44C, G68D, Q78K, S79N, S80T, L81A", "VL": "B2 VL with G102C"}, "B10": {"name": "ABP100s.4 (antibody, V domains shown)", "VH": "B1 VH with Q13K, S77A, Q78K, K89R, T90A", "VL": "B1 VL"}, "B11": {"name": "ABP100s.2 (antibody, V domains shown)", "VH": "B1 VH with Q78K", "VL": "B1 VL"}, "B12": {"name": "ABP100s.6 (antibody, V domains shown)", "VH": "B1 VH with R19K, G68D, Q78K, S79N, S80T, L81A", "VL": "B2 VL with I87E, T107E, V108I, L109K"}, "B13": {"name": "ABP100s.10.3 (antibody, V domains shown)", "VH": "B1 VH with R19K, G44C, G68D, Q78K, S79N, S80T, L81A", "VL": "B2 VL with G102C"}, "B14": {"name": "ABP100s.3 (antibody, V domains shown)", "VH": "B1 VH with Q13K, K89R, T90A", "VL": "B1 VL"}, "B15": {"name": "47D10-V7 x huSP34-v5 (N297A, K322A) (bispecific antibody, V domains shown)", "VH": "B1 VH with R19K, G68D, Q78K, S79N, S80T, L81A", "VL": "B2 VL with T107E, V108I, L109K", "notes": "The name carries the substitutions N297A, K322A"}, "B16": {"name": "47D10-V7 x huSP34-v5 (bispecific antibody, V domains shown)", "VH": "B1 VH with R19K, G68D, Q78K, S79N, S80T, L81A", "VL": "B2 VL with T107E, V108I, L109K", "notes": "The name reads as 47D10-V7 arm x huSP34-v5 arm"}, "B17": {"name": "32G4-V8 x huSP34-v5 (N297A, K322A) (bispecific antibody, V domains shown)", "VH": "B1 VH with R19K, G68D, Q78K, S79N, S80T, L81A", "VL": "B2 VL with T107E, V108I, L109K", "notes": "as for B15"}, "B18": {"name": "47D10-V7-v5.1 (antibody, V domains shown)", "VH": "B1 VH with R19K, G68D, Q78K, S79N, S80T, L81A, A113G", "VL": "B2 VL"}, "B19": {"name": "32G4-V8 x huSP34-v5 (bispecific antibody, V domains shown)", "VH": "B1 VH with R19K, G68D, Q78K, S79N, S80T, L81A", "VL": "B2 VL with T107E, V108I, L109K", "notes": "The name reads as 32G4-V8 arm x huSP34-v5 arm"}, "B20": {"name": "32G4-V8-v5.1 (antibody, V domains shown)", "VH": "B1 VH with R19K, G68D, Q78K, S79N, S80T, L81A, A113G", "VL": "B2 VL"}, "B21": {"name": "ABP100s.11.0 (antibody, V domains shown)", "VH": "EVQLLESGGGLVQPGGSLRLSCAASGFTFNTYAMNWVRQAPGKGLEWVSRIRSKYNNYATYYADSVKDRFTISRDNSKNTLYLQMNSLRAEDTAVYYCAKHGNFGNSYVSWFAYWGQGTTVTVSS", "VL": "B2 VL with T2A, V38F, F46P, G48T, G51Y, G59W, V60T, V80A, I87E, F89Y"}, "B22": {"name": "ABP100s.11.5 (antibody, V domains shown)", "VH": "B21 VH", "VL": "B2 VL with T2A, V38F, F46P, G48T, G51Y, G59W, V60T, V80A, I87E, F89Y"}, "B23": {"name": "ABP100s.12.5 (antibody, V domains shown)", "VH": "B21 VH with G44C", "VL": "QAVVTQEPSLTVSPGGTVTLTCRSSTGAVTTSNYANWFQQKPGQAPRTLIYGTNKRAPWTPARFSGSLLGGKAALTLSGAQPEDEAEYYCALWYSNLWVFGCGTKLTVL"}, "B24": {"name": "ABP100s.12.0 (antibody, V domains shown)", "VH": "B21 VH with G44C", "VL": "B23 VL"}, "B25": {"name": "ABP100s.19 (antibody, V domains shown)", "VH": "B1 VH with Q13K, K89R, T90A", "VL": "B23 VL with R23G, F38V, P46F, T48G, Y51G, R56K, P58S, G71D, C102G"}, "B26": {"name": "ABP100s.17 (antibody, V domains shown)", "VH": "B1 VH", "VL": "B23 VL with R23G, F38V, P46F, T48G, Y51G, R56K, P58S, G71D, C102G"}, "B27": {"name": "ABP100s.20 (antibody, V domains shown)", "VH": "B1 VH with Q13K, S77A, Q78K, K89R, T90A", "VL": "B23 VL with R23G, F38V, P46F, T48G, Y51G, R56K, P58S, G71D, C102G"}, "B28": {"name": "ABP100s.15 (antibody, V domains shown)", "VH": "B1 VH with Q13K, K89R, T90A", "VL": "B2 VL with T2A, R23G, G59W, V60T, L69I, G71D, V80A, I87E"}, "B29": {"name": "ABP100s.14 (antibody, V domains shown)", "VH": "B1 VH with Q78K", "VL": "B2 VL with T2A, R23G, G59W, V60T, L69I, G71D, V80A, I87E"}, "B30": {"name": "ABP100s.16 (antibody, V domains shown)", "VH": "B1 VH with Q13K, S77A, Q78K, K89R, T90A", "VL": "B2 VL with T2A, R23G, G59W, V60T, L69I, G71D, V80A, I87E"}, "B31": {"name": "ABP100s.18 (antibody, V domains shown)", "VH": "B1 VH with Q78K", "VL": "B23 VL with R23G, F38V, P46F, T48G, Y51G, R56K, P58S, G71D, C102G"}, "B32": {"name": "ABP100s.21 (antibody, V domains shown)", "VH": "B1 VH", "VL": "B1 VL with P58S, I69L, F89Y"}, "B33": {"name": "ABP100s.24 (antibody, V domains shown)", "VH": "B1 VH with Q13K, S77A, Q78K, K89R, T90A", "VL": "B1 VL with P58S, I69L, F89Y"}, "B34": {"name": "ABP100s.13 (antibody, V domains shown)", "VH": "B1 VH", "VL": "B2 VL with T2A, R23G, G59W, V60T, L69I, G71D, V80A, I87E"}, "B35": {"name": "ABP100s.22 (antibody, V domains shown)", "VH": "B1 VH with Q78K", "VL": "B1 VL with P58S, I69L, F89Y"}, "B36": {"name": "ABP100s.23 (antibody, V domains shown)", "VH": "B1 VH with Q13K, K89R, T90A", "VL": "B1 VL with P58S, I69L, F89Y"}},
  "note": "Changes are numbered by the printed parent chain. Names and notes keep the numbering of the source.",
  "data": [
    {"molecular_target": "T1, HuCD3E (Homo sapiens, UniProt P07766 23-126, limits assumed)", "T1 construct": "Recombinant analyte in SPR and antigen in ELISA; also called human CD3; human CD3 epsilon", "T1 sequence (P07766 23-126 limits assumed)": "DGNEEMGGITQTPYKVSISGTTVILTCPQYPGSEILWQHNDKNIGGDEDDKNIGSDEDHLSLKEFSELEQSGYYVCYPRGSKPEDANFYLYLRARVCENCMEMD", "assay": "SPR, Biacore 8K; CD3 Affinity column: Hi", "units": {"Kd": "nM"}, "values": [
      {"binder": "B1", "Kd": "< 10"},
      {"binder": "B2", "Kd": "< 10"},
      {"binder": "B3", "Kd": "< 10"},
      {"binder": "B4", "Kd": "< 10"},
      {"binder": "B5", "Kd": "< 10"},
      {"binder": "B6", "Kd": "< 10"},
      {"binder": "B7", "Kd": "< 10"},
      {"binder": "B8", "Kd": "< 10"},
      {"binder": "B9", "Kd": "< 10"},
      {"binder": "B10", "Kd": "< 10"},
      {"binder": "B11", "Kd": "< 10"},
      {"binder": "B12", "Kd": "< 10"},
      {"binder": "B13", "Kd": "< 10"},
      {"binder": "B14", "Kd": "< 10"}
    ]},
    {"molecular_target": "T1, HuCD3E", "assay": "SPR, Biacore 8K; CD3 Affinity column: Hi", "remark": "another data set of the same source", "units": {"Kd": "nM"}, "values": [
      {"binder": "B15", "Kd": "< 10"},
      {"binder": "B16", "Kd": "< 10"},
      {"binder": "B17", "Kd": "< 10"},
      {"binder": "B18", "Kd": "< 10"},
      {"binder": "B19", "Kd": "< 10"},
      {"binder": "B20", "Kd": "< 10"},
      {"binder": "B21", "Kd": "< 10"},
      {"binder": "B22", "Kd": "< 10"},
      {"binder": "B23", "Kd": "< 10"},
      {"binder": "B24", "Kd": "< 10"}
    ]},
    {"molecular_target": "T1, HuCD3E", "assay": "SPR, Biacore 8K; CD3 Affinity column: Hi", "remark": "another data set of the same source", "method": "Initially, the affinity measurement of the anti-CD3 clones were determined using a Surface Plasmon Resonance (SPR) biosensor, Biacore 8K (GE Healthcare). The equilibrium dissociation constant (KD) was calculated from the ratio of kd over ka. To determine the contribution of a specific residue to antibody affinity and expression, paratope mapping was performed by screening of NNK libraries. In brief, the VH and VL of the parental antibody were searched by using NCBI Ig-Blast (www.ncbi.nlm.nih.gov/projects/igblast/) and CDRs were defined by the KABAT delineation system. All residues within CDRs were defined and mutated by NNK method. Each individual NNK library was generated per residue based on the FASEBA platform with a theoretical diversity at 20. The DNA encoding both heavy chain and light chain were inserted into a mammalian expression vector, transfected into CHO-S cells, and stable clones of highest expression were selected. Supernatants were collected from shaker flasks and purified on protein A affinity chromatography.\nAffinity ranking. Binding between the parental and affinity-tuned bispecific antibodies and human and cyno target proteins (HER2 and CD3) was validated by ELISA, and a Biacore 8K was used to study the kinetics of the interaction between the antigen and the bispecific antibodies.", "units": {"Kd": "nM"}, "values": [
      {"binder": "B25", "Kd": "< 10"},
      {"binder": "B26", "Kd": "< 10"},
      {"binder": "B27", "Kd": "< 10"},
      {"binder": "B28", "Kd": "< 10"},
      {"binder": "B29", "Kd": "< 10"},
      {"binder": "B30", "Kd": "< 10"},
      {"binder": "B31", "Kd": "< 10"},
      {"binder": "B32", "Kd": "< 10"},
      {"binder": "B33", "Kd": "< 10"},
      {"binder": "B34", "Kd": "< 10"},
      {"binder": "B35", "Kd": "< 10"},
      {"binder": "B36", "Kd": "< 10"}
    ]}
  ]
}
